{"source": "patent US20120263730A1", "about": "(DEUTSCHES KREBSFORSCHUNGSZENTRUM, published 2012)", "binders": {"B1": {"name": "N-streptag Sdc4ΔTMC (human Syndecan-4 extracellular domain, last 52 amino acids deleted, N-terminal Streptag-HA-CBP) (receptor)", "chain": "ESIRETEVIDPQDLLEGRYFSGALPDDEDVVGPGQESDDFELSGSGDLDDLEDSMIGPEVVHPLVPLDNHIPERAGSGSQVPTEPKKLEENEVIPKRISPVEESEDVSNKVSMSSTVQGSNIFERTE", "modifications": "sulfated glycosaminoglycan chains (GAGs)", "notes": "The Sdc4 signal peptide was replaced by that of mKremen2; Partially purified from conditioned medium of HEK293T cells and captured on streptavidin-coated plates; also called N-streptag-hSdc4ΔTMC; purified extracellular domain of Sdc4; not shown: Streptag-HA-CBP fragment of the pGLUE expression vector"}, "B2": {"name": "human Syndecan-4 (receptor)", "chain": "ESIRETEVIDPQDLLEGRYFSGALPDDEDVVGPGQESDDFELSGSGDLDDLEDSMIGPEVVHPLVPLDNHIPERAGSGSQVPTEPKKLEENEVIPKRISPVEESEDVSNKVSMSSTVQGSNIFERTEVLAALIVGGIVGILFAVFLILLLMYRMKKKDEGSYDLGKKPIYKKAPTNEFYA", "modifications": "glycosaminoglycan chains (GAGs)", "notes": "Expressed on transfected HEK293T cells; also called Sdc4; hSdc4"}, "B3": {"name": "hRspo1-AP (human Rspondin-1 fused C-terminally with alkaline phosphatase) (ligand, UniProt Q2MKA7 21-263, looked up)", "chain": "SRGIKGKRQRRISAEGSQACAKGCELCSEVNGCLKCSPKLFILLERNDIRQVGVCLPSCPPGYFDARNPDMNKCIKCKIEHCEACFSHNFCTKCKEGLYLHKGRCYPACPEGSSAANGTMECSSPAQCEMSEWSPWGPCSKKQQLCGFRRGSEERTRRVLHAPVGDHAACSDTKETRRCTVRRVPCPEGQKRRKGGQGRRENANRNLARKESKEAGAGSRRRKGQQQQQQQGTVGPLTSAGPA", "notes": "Used as conditioned medium from HEK293T cells; also called hRspol-AP; not shown: alkaline phosphatase (AP) tag"}}, "key": {"[1]": {"target": "T1, hRspo3ΔC-AP (human Rspondin-3 aa 1-209 fused to alkaline phosphatase) (human, UniProt Q9BXY4 22-209)", "T1 construct": "partially purified for the in vitro assay; also called Rspo3-AP; hRspo3-AP; not shown: alkaline phosphatase (AP) tag", "T1 sequence": "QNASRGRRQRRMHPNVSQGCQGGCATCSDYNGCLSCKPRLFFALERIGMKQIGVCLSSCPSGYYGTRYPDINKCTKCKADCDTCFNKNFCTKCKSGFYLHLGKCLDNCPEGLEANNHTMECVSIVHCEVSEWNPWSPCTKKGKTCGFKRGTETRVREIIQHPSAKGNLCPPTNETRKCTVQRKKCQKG", "experiment": "in vitro binding assay: N-streptag Sdc4ΔTMC on streptavidin-coated plates, serially diluted hRspo3ΔC-AP, bound AP activity by chemiluminescence, Scatchard plot", "description": "For the in vitro binding assay white, high binding ELISA 96 well plates (Greiner) were coated overnight at 4° C. with 100 μL of 2 μg/mL Streptavidin in bicarbonate buffer (NaHCO₃, 50 mM, pH 9,6). Wells were washed 6 times with […] TBST and incubated with […] of blocking buffer (5% BSA, 1mM MgCl₂ on TBST) on a shaker for 1h at RT. The wells were loaded with […] N-streptag Sdc4ATMC protein in blocking buffer and allowed to bind overnight on a shaker at 4° C. Wells were washed 6 times with […] TBST and incubated with […] of blocking buffer for 1 h. For the binding experiments, […] of serially diluted hRspo3ΔC-AP were placed in wells coated with blocking buffer or N-streptag Sdc4ΔTMC. After 2 h incubation at RT wells were washed 6 times with […] TBST. Bound AP activity was measured using chemiluminescent SEAP Reporter Gene Assay (Roche). For each dilution, background binding value was subtracted from hRspo3ΔC-AP value. Binding data were analyzed by Scatchard plot using Excel."}, "[2]": {"target": "T2, Wnt5aV5 (V5-tagged Wnt5a) (mouse, UniProt P22725 62-380, limits assumed)", "T2 construct": "The construct text says 'mWnt3a was subcloned' for pPGKmWnt5aV5, which is probably a slip; Conditioned medium from stably transfected L cells; also called mWnt5aV5; recombinant Wnt5a; not shown: V5 tag", "T2 sequence (looked up)": "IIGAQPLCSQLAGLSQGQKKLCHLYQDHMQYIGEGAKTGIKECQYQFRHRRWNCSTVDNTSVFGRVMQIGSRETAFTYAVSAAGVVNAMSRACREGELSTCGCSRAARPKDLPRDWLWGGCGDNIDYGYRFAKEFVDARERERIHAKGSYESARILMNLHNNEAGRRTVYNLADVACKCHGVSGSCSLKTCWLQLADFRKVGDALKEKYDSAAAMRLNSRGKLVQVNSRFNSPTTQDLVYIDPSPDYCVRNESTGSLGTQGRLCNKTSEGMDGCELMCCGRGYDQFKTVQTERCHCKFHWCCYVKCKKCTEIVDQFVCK", "experiment": "cell surface binding on transfected HEK293T cells", "from_the_text": "(A-C) Cell surface binding assays. (A, D) Rspo3 binds to syndecan 4 and glypican 3. HEK293T cells were transfected with indicated plasmids and V5-tagged Wnt5a or alkaline phosphatase tagged Rspo3, Dkk1, or TSP proteins were applied for cell surface binding as indicated. (B, C, E, F) Cells were transfected with indicated plasmids and conditioned media.\n(§1) Protein conditioned media were produced by transient transfection of HEK293T cells with plasmids encoding fusion proteins: hRspol-AP, hRspo2ΔC-AP, hRspo3ΔC-AP, hRspo3TSP-AP, and dkk1-AP in complete DMEM. XWnt8-hFzd5 fusion was produced in serum-free medium (OPTIMEM I, Gibco) and conditioned medium was concentrated about 100-fold using Centricon Plus-20 filters (Millipore). Wnt5aV5 protein conditioned media was produced using L cells stable transfected with pWnt5aV5. For cell-surface binding experiments, 293T cells were plated on polylysine coated plates, transfected with genes to be tested using FuGENE 6 (Roche) for 48 h, incubated with conditioned media containing fusion proteins for 2 h on ice, washed with Hank's buffer, fixed for 30 min with 0,5mM DSP (Pierce) in Hank's-100mM HEPES, pH 7,2, washed with 0,1 M Tris pH 8,0 and stained with Fast Red (Roche). […] It should be compared with background staining obtained from cells transfected with control plasmid or other genes that are not able bind applied fusion protein."}, "[3]": {"target": "B3", "experiment": "cell surface binding, AP fusion on transfected HEK293T cells", "from_the_text": "(§2) (A) Rspo2 and Rspo3 bind to Syndecan-1, Syndecan-2, Syndecan-3 and Syndecan-4. […] HEK293 T-cells were transfected with indicated plasmids and alkaline phosphatase tagged Rspo1, Rspo2, Rspo3 and Rspo4 proteins were applied for cell surface binding as indicated. Cells were transfected with indicated plasmids and conditioned media containing alkaline phosphatise (AP)-fusion proteins of R-spondins were applied for cell surface binding and AP staining as indicated. (B) Cells were transfected with indicated plasmids and incubated with or without NaClO₃. After 24 h Rspo3-AP was applied for binding and proceeded for staining. (C) In vitro binding assay with N-streptag Sdc4ΔTMC purified from conditioned media of control or NaCIO₃ treated cells with purified Rspo3-AP (RU, relative units). (D) Scatchard plot analysis for in vitro binding assays with purified N-streptag Sdc4ΔTMC and Rspo3-AP. (E) Rspo3 binds to Glypican-1, Glypican-2, Glypican-3, Glypican-4, Glypican-5 and Glypican-6.\nas §1"}, "[4]": {"target": "T3, mouse Syndecan-3 (mouse, UniProt Q64519 45-442, glycosaminoglycan chains (sites not given))", "T3 construct": "whole, on cells; Expressed on transfected HEK293T cells; also called Sdc3; mSdc3", "T3 sequence (Q64519 45-442)": "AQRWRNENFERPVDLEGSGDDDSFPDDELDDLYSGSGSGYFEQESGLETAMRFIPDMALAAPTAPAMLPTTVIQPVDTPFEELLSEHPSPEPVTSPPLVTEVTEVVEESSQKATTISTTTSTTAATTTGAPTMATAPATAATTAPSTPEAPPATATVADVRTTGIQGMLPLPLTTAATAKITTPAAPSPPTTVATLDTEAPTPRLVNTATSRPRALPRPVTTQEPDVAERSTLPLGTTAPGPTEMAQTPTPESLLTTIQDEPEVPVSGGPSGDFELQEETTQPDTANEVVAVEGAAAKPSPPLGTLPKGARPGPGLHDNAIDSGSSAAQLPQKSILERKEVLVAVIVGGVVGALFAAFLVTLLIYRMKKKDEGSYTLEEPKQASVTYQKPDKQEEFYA", "experiment": "cell surface binding, AP fusion on transfected HEK293T cells", "from_the_text": "as §2, §1"}, "[5]": {"target": "T4, mouse Syndecan-1 (mouse, UniProt P18828 23-311, glycosaminoglycan chains (sites not given))", "T4 construct": "whole, on cells; Expressed on transfected HEK293T cells; also called Sdc1; mSdc1", "T4 sequence (looked up)": "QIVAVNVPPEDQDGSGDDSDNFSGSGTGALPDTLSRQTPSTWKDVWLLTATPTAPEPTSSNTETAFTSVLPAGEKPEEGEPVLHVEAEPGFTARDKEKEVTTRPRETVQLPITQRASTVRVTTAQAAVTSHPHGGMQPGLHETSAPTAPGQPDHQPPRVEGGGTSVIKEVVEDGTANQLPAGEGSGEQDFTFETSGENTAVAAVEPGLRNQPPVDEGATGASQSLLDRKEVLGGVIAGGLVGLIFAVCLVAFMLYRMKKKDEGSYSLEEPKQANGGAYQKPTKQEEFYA", "experiment": "cell surface binding, AP fusion on transfected HEK293T cells", "from_the_text": "as §2, §1"}}}
{"binder": "B1", "values": [{"measurement": "Kd", "setting": "[1]", "value": 0.88, "unit": "nM"}]}
{"binder": "B2", "values": [{"measurement": "binding result", "setting": "[2]", "value": "no binding"}, {"measurement": "binding result", "setting": "[3]", "value": "no binding"}]}
{"binder": "B3", "values": [{"measurement": "binding result", "setting": "[4]", "value": "no binding"}, {"measurement": "binding result", "setting": "[5]", "value": "no binding"}]}
